The assay has as its target HIV-1 gp120 (HIV-1). Nature of the assay: ELISA, coated gp120; binding relative to scytovirin.

Substance “SD2 (residues 49-95 of scytovirin with a substitution of serine at position 55) (peptide)” yielded a percent binding in comparison to scytovirin of 50%.
